Data on 2 molecules can be found in US20180318440A1 (US Dept. of Health and Human Services, published 2018).

Experiment [1] deals with T1, human FGFR4 extracellular domain (FGFR4-ECD) (human, UniProt P22455 22-369).
T1 construct: extracellular domain; also called hFGFR4-ECD
T1 sequence (looked up): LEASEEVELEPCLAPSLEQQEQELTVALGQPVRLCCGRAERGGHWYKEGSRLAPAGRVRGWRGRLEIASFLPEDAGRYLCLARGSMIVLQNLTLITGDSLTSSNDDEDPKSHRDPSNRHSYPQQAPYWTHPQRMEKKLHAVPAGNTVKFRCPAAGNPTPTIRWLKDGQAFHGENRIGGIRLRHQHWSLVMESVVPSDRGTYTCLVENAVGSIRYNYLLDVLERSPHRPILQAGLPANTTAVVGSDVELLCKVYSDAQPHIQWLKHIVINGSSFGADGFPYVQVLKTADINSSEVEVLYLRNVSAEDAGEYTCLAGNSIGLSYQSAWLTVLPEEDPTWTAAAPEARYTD
In words: SPR (BIACORE), mAb immobilized on the chip, FGFR4-ECD in solution; column head prints 10^4, read as 10^-4 because that agrees with the printed kon and KD. As for the experimental part:
(§1) The affinity of two of the FGFR4-specific mAbs was tested using surface plasmon resonance.
(§2) The mAb was immobilized in a CMS chip and the binding of FGFR4 extracellular domain (FGFR4-ECD) was detected by measuring surface plasmon resonance in a BIACORE™ instrument
(SPR reads the build-up and loss of mass on a sensor chip optically.)

For experiment [2], the target named is T1, human FGFR4 extracellular domain …. Briefly: SPR (BIACORE), mAb immobilized on the chip, FGFR4-ECD in solution. As for the experimental part: as §1, §2
Experiment [3] has the same target. Briefly: SPR (BIACORE), mAb immobilized on the chip, FGFR4-ECD in solution; 'Observed KD'. The protocol: as §1, §2

By koff is commonly meant a measure of how fast the partners let go of each other. The low end stands for slow dissociation, the high end for fast dissociation. The term kon denotes the second-order rate constant of association. A lower kon goes with slow association. As usually defined, the Kd is the equilibrium constant for the complex coming apart. Read a high Kd as a looser complex.

B1: 57.1 rabbit anti-FGFR4 mAb (antibody, V domains shown)
VH: QSVKESEGRLVTPGTPLTLTCTVSGFSLSTYAMSWVRQAPEKGLEWIGIIYATAETYYATWARGRFTISKTSTTVDLKITSPATEDTATYFCARLNGDGSGTYAYDIWGPGTLVTVSS
VL: ELVMTQTPSPVSAAVGGTVTINCQASQSISSSYLSWYQQKPGQPPKLLIYKASTRPSGVSSRFKGSGSGTQFTLTISGVQCADAATYYCLYGYYIDSGADNSFGGGTEVVVK
On to B1, for which the off-rate constant (koff) in experiment [1] was 0.00018 s⁻¹. In addition, in experiment [2], the on-rate constant (kon) was determined as 1700 M⁻¹ s⁻¹. The same molecule yielded a Kd in experiment [3] of 110 nM.

B2: 29.2 rabbit anti-FGFR4 mAb (antibody, V domains shown)
VH: QSVKESEGRLVTPGTPLTLTCTVSGFSLSSNSVGWVRQAPGKGLEWIGIISSSGNRYYASWAKGRFTISKTSTTVDLKITSPTTEDTATYFCGGDPVSWYGDIWGPGTLVTVSS
VL: ELVLTQTPSSVSAAVGGTVTINCQSSPSLYKNNYLSWYQQKPGQPPKLLIYSASTLASGVPSRFKGSGSGTEYTLTISGVQCDDAATYYCLGGYSLSSDSPRAFGGGTEVVVK
As for B2, the koff in experiment [1] came to 0.00043 s⁻¹. For the same molecule, the association rate constant (kon) in experiment [2] worked out at 25000 M⁻¹ s⁻¹. Also, in experiment [3], binding was put at a Kd of 17 nM.
